One substance from paper PMC4725963 can be followed below.

The assay addresses CdiA-CT_(PA0041), C-terminal (CT) toxin domain of CdiA_(PA0041) of P. aeruginosa PAO1 (P. aeruginosa PAO1).

“CdiI_(PA2462)-His6, immunity protein of the cdi_(PA2462) locus of P. aeruginosa PAO1 (natural protein)” showed a decrease of CFU/ml of E. coli co-producing CdiA-CT (PA0041) (1% arabinose) with the non-cognate CdiI (PA2462)-His6 (1 mM IPTG), after 6 h of culture: no protection of 6 logs.
